Results: patent CN113214393A

Target: IL-6R (UniProt P08887)
Experiment: chemiluminescent immunoassay; ABEI-labelled human IL-6 on IL-6R-coated magnetic beads, diluent only (no antibody); same control value printed in all four columns

UniProt P08887, sequence (P08887 20-358 limits assumed): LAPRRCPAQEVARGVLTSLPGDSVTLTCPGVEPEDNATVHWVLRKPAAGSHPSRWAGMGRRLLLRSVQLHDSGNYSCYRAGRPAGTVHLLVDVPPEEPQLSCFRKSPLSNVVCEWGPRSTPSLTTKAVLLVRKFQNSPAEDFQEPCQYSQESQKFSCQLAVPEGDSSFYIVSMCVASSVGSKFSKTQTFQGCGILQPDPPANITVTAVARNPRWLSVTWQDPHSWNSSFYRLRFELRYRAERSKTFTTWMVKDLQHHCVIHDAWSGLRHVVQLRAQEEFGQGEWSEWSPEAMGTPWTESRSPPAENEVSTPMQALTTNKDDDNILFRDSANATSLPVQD

人IL-6抗原 (from UniProt P05231 30-212) (ligand)
RLU (相对光强度): 606000 RLU
